In patent publication US11015206B2, “Compositions and methods comprising sequences having hydroxyphenylpyruvate dioxygenase (HPPD) activity” (PIONEER HI-BRED INTERNATIONAL, INC., priority 2014, dated 2021):

Legend:
Type in all cases: biochemical, Z. mays
[1] = system: 4-hydroxyphenylpyruvate dioxygenase (HPPD); assay: Insensitivity parameter (ON × OFF) and trait fitness (ON × OFF × kcat/KM or × kcat); parameters: key to ON × OFF / Insensitivity, mesotrione, ON × OFF / Insensitivity, tembotrione, ON × OFF / Insensitivity, topramezone, ON × OFF / Insensitivity, sulcotrione, ON × OFF / Insensitivity, isoxaflutole (DKN), ON × OFF: insensitivity = ON rate ratio × OFF rate ratio (surrogate for KD)
From the text: Because substrate and inhibitors bind in the same site, the high concentration of substrate present may competitively trap the inhibitor and prevent it from binding again. To be sure that improvement in ON rates is being taken into account, the ON and OFF rate ratios were multiplied, creating an “insensitivity parameter” that is a surrogate for KD. KD is expressed as kOFF/kON, but because the ON rate ratio is an inverse parameter (the higher the value of ON rate ratio, the lower the value of the represented phenomenon, kON), it is appropriate to multiply ON and OFF rate ratios rather then divide OFF rate ratio by ON rate ratio. Another parameter, which quantifies the combined catalytic and insensitivity properties of the enzyme is kcat/KM×ON rate ratio×OFF rate ratio, and is termed “trait fitness”. This parameter is intended to have a meaning similar to the commonly used expression kcat/KM×Ki.

[2] = system: 4-hydroxyphenylpyruvate dioxygenase (HPPD); assay: Estimate of kcat from initial rate at saturating hydroxyphenylpyruvate without inhibitor (ON rate ratio assay)
From the text: (§1) Higher KD (reduced affinity or increased insensitivity) can be attained with a numerically smaller ON rate, a larger OFF rate or both. To detect and quantify changes in kON and kOFF, observations of the time course of an HPPD reaction as inhibitor binds to and inactivates the enzyme (kON), or is released from a pre-formed enzyme-inhibitor complex (kOFF) were used, as shown in FIGS. 13A and 13B. In practice, a quantitative indicator of kON was obtained by monitoring the time courses of HPPD reactions containing 60 or 120 nM HPPD and 100 μM HPP in the presence and absence of 4 μM inhibitor (e.g., mesotrione or tembotrione). The ratio of the reaction rate with inhibitor to that without inhibitor during the 70 to 90 second interval of the reaction was termed the “ON rate ratio”. The smaller the actual kON, the more slowly the HPPD reaction decelerates and the higher the value is for the ON rate ratio. FIGS. 13A and 13B illustrate the contrasting reaction velocity in the 70-90 sec interval for maize wild-type HPPD (FIG. 13A) versus an improved variant (SEQ ID NO:78) (FIG. 13B).
Thirty nine variants were desensitized to tembotrione compared with the backbone enzyme, Round 7, variant 9070 (SEQ ID NO:2) and all were desensitized compared with maize wild type HPPD (SEQ ID NO:1). Because the assay for ON rate ratio includes an initial rate measurement at saturating hydroxyphenylpyruvate without inhibitor and with known enzyme concentration, an estimate of kcat was available. Taking into account kcat and insensitivity parameters, 30 variants were selected for measurement of substrate saturation kinetic parameters and re-evaluation of insensitivity to tembotrione. The kinetic and insensitivity parameters were determined as described in Example 1, and were multiplied to generate the “trait fitness” parameter. The complete list of variants, i.e., of selected single substitutions in SEQ ID NO:2, analyzed with multiple inhibitors and the results obtained are shown in Table 6. The same set of 30 variants were evaluated for insensitivity to mesotrione, sulcotrione, isoxaflutole (its active diketonitrile form, abbreviated DKN in Table 6) and topramezone.

[3] = system: 4-hydroxyphenylpyruvate dioxygenase (HPPD); assay: ON rate ratio: HPPD reaction rate with vs without inhibitor in the 70 to 90 second interval; settings: Table 7; tembotrione; combinatorial variants
From the text: as §1

[4] = system: 4-hydroxyphenylpyruvate dioxygenase (HPPD); assay: OFF rate ratio: release of inhibitor from pre-formed enzyme-inhibitor complex; settings: Table 7; tembotrione; combinatorial variants
Protocol: A quantitative indicator of kOFF can be obtained by observing the time course of an HPPD reaction as inhibitor is released from a pre-formed enzyme-inhibitor complex. HPPD and inhibitor were incubated together at concentrations of 7.2 and 8 μM, respectively. Incubations with the same concentrations of enzyme but no inhibitor were done in parallel. After 1 hr at room temperature, 5 to 10 μl of the enzyme-inhibitor complex was dispensed into the wells of the assay plate. Reactions were started with the addition of 290 to 295 μl of 25 mM Hepes, pH 7, 2 mM ascorbate, 10 μM FeSO4, 100 μM HPP and 50 nM HGD. The reactions were monitored at 320 nm for 12 min. Reaction velocity accelerates as inhibitor is released from the enzyme until a steady state is reached, during which the reaction velocity is constant. The ratio of the steady state rate in mixtures containing herbicidal inhibitor to the initial velocity of mixtures lacking inhibitor is termed the “OFF rate ratio”.
Another parameter to record is the time span required for the reactions with inhibitor to reach the steady state. FIGS. 13C and 13D illustrate the contrasting time span in which maize wild-type HPPD (FIG. 13C) and an improved variant (SEQ ID NO:78) (FIG. 13D) dissociated from mesotrione, as indicated by the accelerating reaction rates. The plateau of absorbance is due to exhaustion of the substrate. With the improved variant, not only was the steady state attained in a shorter time span (80 sec for the variant versus 280 sec for wild type), the velocity attained was twice as high as with wild type, though the enzymes were present at the same concentration (240 nM). This is because a larger fraction of the variant enzyme is free of inhibitor compared to the wild-type enzyme, and the kcat for both is nearly the same, about 220 min^−1.

[5] = Table 7, tembotrione, combinatorial variants
[6] = Table 7, combinatorial variants

Molecule	ON × OFF ([1]; Megatable 3, shuffled variants)	ON × OFF [1, 5]	ON rate ratio [3]	OFF rate ratio [4]	ON × OFF × kcat ([1]; Megatable 3, shuffled variants)	ON × OFF × kcat [1, 5]	kcat ([2]; Megatable 3, shuffled variants) [min⁻¹]	kcat [2, 6] [min⁻¹]
P056028-A-09 (protein, Zea mays variant form created by artificial means.) MGPTPTATAAGAAVAAASAAEQAAFRLVGHRNFVRFNPRSDRFQTLAFHHVELWCADAASAAGRFSFALGVPLAARSDLSTGNSAHASLLLRSGSLSLLFTAPYAHGADAATAALPSFSAAAARRFAADHGLAVRAVALRVADAEDAFRASVAAGARKAFGPVDLGRGFRLAEVELYGDVVLRYVSYPDGAAGEPFLPGFEGVASPGAADLGLNRFDHIVGNVPELAPAAAYMAGFTGFHEFAEFTTEDVGTTESGLNSMALANNSENVLLPLNEPVHGTKRRSQIQTFLDHHGGPGVQHIALASDDVLRTLREMRARSAMGGFEFLPPPLSDYYDGVRRCAGDVLTEAQINECQELGVMVDRDDEGVLLQIFTKPVGDRPTFFLEIIQRIGCMEKDEKGQEYQKGGCGGFGKGNFGQLFKSIEDYEKSLEAKQAAAAATAQGS	0.235	0.235	0.692	0.339	3.26	3.26	13.9	13.9
P056028-B-01 (protein, Zea mays variant form created by artificial means.) MGPTPTATAAGAAVAAASAAEQAAFRLVGHRNFVRFNPRSDRFQTLAFHHVELWCADAASAAGRFSFALGVPLAARSDLSTGNSAHASLLLRSGSLSLLFTAPYAHGADAATAALPSFSAAAARRFAADHGLAVRAVALRVADAEDAFRASVAAGARPAFGPVDLGRGFRLAEVELYGDVVLRYVSYPDGAAGEPFLPGFEGVASPGAADYGLSRFDHIVGNVPELAPAAAYMAGFTGFHEFAEFTTEDVGTTESGLNSMALANNSENVLLPLNEPVHGTKRRSQIQTFLDHHGGPGVQHIALASDDVLRTLREMRARSAMGGFEFLPPPLSDYYDGVRKCAGDVLTEAQINECQELGVMVDRDDEGVLLQIFTKPVGDRPTFFLELIQRIGCMEKDEKGQEYQKGGCGGFGKGNFGQLFKSIEDYEKSLEAKQAAAAATAQGS	0.230	0.230	0.745	0.309	4.28	4.28	18.6	18.6
P056028-B-03 (protein, Zea mays variant form created by artificial means.) MGPTPTATAAGAAVAAASAAEQAAFRLVGHRNFVRFNPRSDRFQTLAFHHVELWCADAASAAGRFSFALGVPLAARSDLSTGNSAHASLLLRSGSLSLLFTAPYAHGADAATAALPSFSAAAARRFAADHGLAVRAVALRVADAEDAFRASVAAGARPAFGPVDLGRGFRLAEVELYGDVVLRYVSYPDGAAGEPFLPGFEGVASPGAADYGLNRFDHIVGNVPELAPAAAYMAGFTGFHEFAEFTTEDVGTTESGLNSMALANNSENVLLPLNEPVHGTKRRSQIQTFLDHHGGPGVQHIALASDDVLRTLREMRARSAMGGFEFLPPPLSDYYDGVRRCAGDVLTEAQINECQRLGVMVDRDDEGVLLQIFTKPVGDRPTFFLEIIQRIGCMEKDEKGQEYQKGGCGGFGKGNFGQLFKSIEDYEKSLEAKQAAAAATAQGS	0.259	0.259	0.732	0.353	4.63	4.63	17.9	17.9

Second part, led by results:

ON × OFF ([1]; Megatable 3, shuffled variants)	ON × OFF [1, 5]	ON rate ratio [3]	OFF rate ratio [4]	Molecule	ON × OFF × kcat ([1]; Megatable 3, shuffled variants)	ON × OFF × kcat [1, 5]	kcat ([2]; Megatable 3, shuffled variants) [min⁻¹]	kcat [2, 6] [min⁻¹]
0.230	0.230	0.703	0.327	P056028-B-10 (protein, Zea mays variant form created by artificial means.) MGPTPTATAAGAAVAAASAAEQAAFRLVGHRNFVRFNPRSDRFQTLAFHHVELWCADAASAAGRFSFALGVPLAARSDLSTGNSAHASLLLRSGSLSLLFTAPYAHGADAATAALPSFSAAAARRFAADHGLAVRAVALRVADAEDAFRASVAAGARPAFGPVDLGRGFRLAEVELYGDVVMRYVSYPDGAAGEPFLPGFEGVASPGAADYGLSRFDHIVGNVPELAPAAAYMAGFTGFHEFAEFTTEDVGTTESGLNSMALANNSENVLLPLNEPVHGTKRRSQIQTFLDHHGGPGVQHIALASDDVLRTLREMRARSAMGGFEFLPPPLSDYYDGVRRCAGDVLTEAQINECQELGVMVDRDDEGVLLQIFTKPVGDRPTFFVEIIQRIGCMEKDEKGQEYQKGGCGGFGKGNFGQLFKSIEDYEKSLEAKQAAAAATAQGS	4.12	4.12	17.9	17.9
0.196	0.196	0.718	0.273	P056028-B-04 (protein, Zea mays variant form created by artificial means.) MGPTPTATAAGAAVAAASAAEQAAFRLVGHRNFVRFNPRSDRFQTLAFHHVELWCADAASAAGRFSFALGVPLAARSDLSTGNSAHASLLLRSGSLSLLFTAPYAHGADAATAALPSFSAAAARRFAADHGLAVRAVALRVADAEDAFRASVAAGARPAFGPVDLGRGFRLAEVELYGDVVMRYVSYPDGAAGEPFLPGFEGVASSGAADYGLNRFDHIVGNVPELAPAAAYMAGFTGFHEFAEFTTEDVGTTESGLNSMALANNSENVLLPLNEPVHGTKRRSQIQTFLDHHGGPGVQHIALASDDVLRTLREMRARSAMGGFEFLPPPLSDYYDGVRKCAGDVLTEAQINECQELGVMVDRDDEGVLLQIFTKPVGDRPTFFLEIIQRIGCMEKDEKGQEYQKGGCGGFGKGNFGQLFKSIEDYEKSLEAKQAAAAATAQGS	3.24	3.24	16.5	16.5
0.211	0.211	0.734	0.287	P056028-B-05 (protein, Zea mays variant form created by artificial means.) MGPTPTATAAGAAVAAASAAEQAAFRLVGHRNFVRFNPRSDRFQTLAFHHVELWCADAASAAGRFSFALGVPLAARSDLSTGNSAHASLLLRSGSLSLLFTAPYAHGADAATAALPSFSAAAARRFAADHGLAVRAVALRVADAEDAFRASVAAGARPAFGPVDLGRGFRLAEVELYGDVVLRYVSYPDGAAGEPFLPGFEGVASPGAADYGLSRFDHIVGNVPELAPAAAYMAGFTGFHEFAEFTTEDVGTTESGLNSMALANNSENVLLPLNEPVHGTRRRSQIQTFLDHHGGPGVQHIALASDDVLRTLREMRARSAMGGFEFLPPPLSDYYDGVRKCAGDVLTEAQINECQELGVMVDRDDEGVLLQIFTKPVGDRPTFFLELIQRIGCMEKDEKGQEYQKGGCGGFGKGNFGQLFKSIEDYEKSLEAKQAAAAATAQGS	3.85	3.85	18.3	18.3
